Reference: article PMC10808224, “Lsr2 acts as a cyclic di-GMP receptor that promotes keto-mycolic acid synthesis and biofilm formation in mycobacteria” (Nature Communications, 2024)

What was measured:
[1] = molecular target: Lsr2Mtb (Lsr2BCG in main text) (Mycobacterium tuberculosis) (UniProt P9WIP7); assay: EMSA
[2] = molecular target: Lsr2Msm (Mycobacterium smegmatis mc2 155) (UniProt A0R576); assay: EMSA; settings: EMSA: 50 mM Tris-HCl pH 7.5, 50 mM NaCl, 10% glycerol, 30 uL, room temperature 15 min; 8% native PAGE in 0.5x TBE

## CCGCTCGGATCGGGGTTCCGTCGGCCCTGGCGCTGGGTGCGGCCGGCGGCGCGTTGGCGGCTCTAGCCTCTAGACGCCAATCACGCTGATAAGCTGCGCCGTTAGCCTGGCGACGATGCGGCCCGCGCAGCGGGGCGAGGAGGAGCCGGGCAATAGGGCCCAGCCTGGCGACGATGCGACCCGCGCAGCGGGGCGAGGAGGAGCCGGGCAATAGGGCTTAGCAACTATTCGAGCGGAGGGCGGCAGCGGCATGACAGTTCCCGAAGAAGCCCAGACACTGATCGGCAAGCATTATCGGGC (double strand) [hadDMtbp / hadDBCGp]
[1]
  binding: binds

## TAGTCGGGGTAGCGGTAGTGAGTCCCGATGATGTTTGCCGCGATGCTCATGTGTTCTCTGCTACTCCCGTGCTTCCAGCTTCAACTGCCCGGCTGCGGAAGCCTATCAGCGTGGGGGTTCAGCGAATGTCAGCGAAGGTCAGCGAAGGTCATGGCGGCGGGAGGCCACCGCGGCCAGCGCGCCGCCGAGCGCCCCTAGGGCCAGCGCGGACGGCACACCGATGCGGGCCGCTTTGCGGGCCGTGCGGAAGTCGCGGATCTCCCAGCCGCGTTCCCGCGCGACGTCGCGCAGCGCGGCGTC (double strand) [hadDMsmp]
[2]
  binding: binds
